{"source": "patent US20110009597A1", "about": "“RECOMBINANT GANODERMA LUCIDIUM IMMUNOMODULATORY PROTEIN (rLZ-8) AND USES THEREOF” (priority 2008, published 2011)", "molecules": {"B1": {"name": "rLZ-8: Recombinant Ganoderma Lucidum Immune Regulatory Protein expressed in Pichia pastoris (protein, UniProt P14945 2-111, looked up)", "Immunomodulatory protein Ling …": "SDTALIFRLAWDVKKLSFDYTPNWGRGNPNNFIDTVTFPKVLTDKAYTYRVAVSGRNLGVKPSYAVESDGSQKVNFLEYNSGYGIADTNTIQVFVVDPDTNNDFIIAQWN"}}, "key": {"[1]": {"tested_on": "Human Promyelocytic Leukemia NB4 Cells", "assay": "Killing effect of rLZ-8 on NB4 cells (MTT, OD570nm)", "format": "cell-based", "procedure": "After filtration and degerming, we prepared 8 concentrations using IMDM culture medium which are respectively 0.78 μg·ml^−1, 1.56 μg·ml^−1, 3.125 μg·ml^−1, 6.25 μg·ml^−1, 12.5 μg·ml^−1, 25 μg·ml^−1, 50 μg·ml^−1, 100 μg·ml^−1.\nOn 96-orifice culture medium plate, the pilot orifice plus NB4 tumor cells 0.1 ml and rLZ-8 0.1 ml, rLZ-8 concentrates from low to high; negative control group plus NB4 tumor cells and culture medium of 0.1 ml respectively; positive drug control group arsenic trioxide As2O3; make six-aperture multipunches for each group. Placing in 37° C., 5% CO2 incubator 48 h, adding MTT15 μl (5 mg ml^−1) prior to the termination of 4 h, after the termination of cell culture by adding 100 μl 0.1 mol L^−1 hydrochloric acid isopropyl alcohol, testing on the enzyme-linked immunosorbent OD570nm values."}, "NB4": {"tested_on": "NB4", "assay": "PI single stained flow cytometry, apoptosis of NB4", "format": "cell-based", "procedure": "Fluorescence microscope, model Leica ASLMD, K562, NB4. rLZ-8 is classified into high, medium and low three-dose groups respectively, now we prepare them with IMDM culture medium containing 2% FCS into the preparation of 2.5 μg·ml^−1, 0.5 μg/ml, 0.1 μg·ml^−1. […] (PI) 50 μg·ml ^−1.\nEstablish K562 as the normal control group, rLZ-8 low-dose group (0.1 μg·ml^−1), rLZ-8 medium dose group (0.5 μg·ml^−1), rLZ-8 high-dose group, (2.5 μg·ml^−1); set NB4 as the normal control group, rLZ-8 low-dose group (0.1 μg·ml^−1), rLZ-8 medium dose group (0.5 μg·ml^−1), rLZ-8 high-dose group, (2.5 μg·ml^−1).\nMix K562 and NB4 cells into 24-orifice plate respectively, and supply rLZ-8 in different concentrates, 1 ml/orifice, set 3-orifice multipunches for each group. Put them in 37° C., 5% CO2 incubator for 24 h, collect the cells of each concentrate, PBS washes twice and regulates the cell density to 1×10^6/ml, 70% ice ethanol fixation, adjusts to −20° C. and stays overnight. Wash the cells with PBS twice after fixing the cells, add PI (end density 50 μg·ml^−1) for room temperature and lucifuged hatching 10 min, 1000 r·min^−1 centrifuge 5 min, clear supernatant with disposable 400μ. IPBS re-suspension precipitation. And test on computer in 1 h."}, "S180 cells": {"tested_on": "S180 cells", "assay": "Mouse transplanted S180 subcutaneous tumor inhibition", "format": "in vivo, Mice", "settings": "10 days", "procedure": "Mice, 18-22 g, males and females were equally divided, provided by Jilin University Laboratory Animal Center; Mice Ehrlich ascites cells strain, provided by our laboratory S180; Cyclophosphamide (CTX), offered by Jiangsu Hengrui Medicine Co., Ltd., lot number: 06101921. S180 ascites tumors and solid tumors in experiment group were divided into normal control group, negative control group, positive control group, rLZ-8 low-dose treatment group (0.25 mg·kg^−1), rLZ-8 medium-dose treatment group (0.5 mg·kg^−1), rLZ-8 high-dose treatment group (1 mg·kg^−1). For each group 10 mice.\nSelect well-growing S180 cells, dilute appropriately with sterile saline into a tumor cell suspension, cell counts for 10^7·L^−1, under the right armpit of each mouse inoculated subcutaneously 0.2 ml (except for the normal control group). Treatment after 24 h of vaccination. Normal control group and negative control group were given saline 0.2 ml·each^−l·d^−1, intraperitoneal injection; positive control group were given cyclophosphamide 20 mg·kg^−1, intraperitoneal injection. rLZ-8 treatment groups were given doses of tail venous injection respectively, 0.2 ml·each^−1·d^−1, in 10 consecutive days. Draw blood from orbital venous plexus 10 days before and after medication respectively, sent to Jilin University No. 1 Hospital clinical laboratory to test and analyze the number of WBC. Kill all mice the next day of drug withdrawal at cervical dislocation, dissect anatomically and take out the tumors, weigh tumors, calculate the inhibition rate using the following equation:\nInhibition rate (%)=(average tumore weight of the control group−average tumore weight of the experiment group)/average tumor weight of the control group×100%"}, "spleen": {"tested_on": "spleen", "assay": "Colony forming unit-spleen and spleen index in radiation model of mice", "format": "in vivo", "procedure": "rLZ-8 preparation of sterile saline. Divide them into 5 ∞g·kg^−1, 2.5 μg·kg^−1, 1.25 μg·kg^−1, 0.62 μg·kg^−1 dose groups. 0.2 ml/vial.\nGenlei™ Scimax™ [Recombinant human granulocyte colony-stimulating factor injection (rhG-CSF)], production lot: 20060403; 150m/vial is prepared with sterile normal saline into the preparation of 3.2 μg·kg^−1, 0.2 ml/vial.\nThe mice were irradiated by 7.5 Gy γ-ray (180 mV, 15 mA) and then divided into seven groups (n=10): (A) negative control; (B) 5 μg·kg−1 dose; (C) 2.5 μg·kg−1 dose; (D) 1.25 μg·kg−1 dose; (E) 0.62 μg·kg−1 dose; (F) positive control (Genlei™ Scimax™); (G) model group. Together with modeling, mice in each group were administered with Genlei™ Scimax™ and rLZ-8 for 9 days, drew blood from tail, tested the number of WBC, weight spleen, calculated index of spleen."}, "[2]": {"settings": "rLZ-8 0.25 mg·kg^−1 tail venous injection"}, "[3]": {"settings": "rLZ-8 0.5 mg·kg^−1 tail venous injection"}, "[4]": {"settings": "rLZ-8 1 mg·kg^−1 tail venous injection"}}, "data": [{"molecule": "B1", "values": [{"measurement": "lethal effect in vitro on NB4 tumor cells (in words)", "setting": "[1]; 0.78-100 μg·ml^−1", "value": "strong lethal effect"}, {"measurement": "Growth inhibition rate (%)", "setting": "[1]; rLZ-8 0.78 μg ml^−1, 48 h", "value": 39, "unit": "%"}, {"measurement": "OD570 nm", "setting": "[1]; rLZ-8 0.78 μg ml^−1, 48 h", "value": "0.71 ± 0.03"}, {"measurement": "Growth inhibition rate (%)", "setting": "[1]; rLZ-8 1.56 μg ml^−1, 48 h", "value": 44, "unit": "%"}, {"measurement": "OD570 nm", "setting": "[1]; rLZ-8 1.56 μg ml^−1, 48 h", "value": "0.65 ± 0.05"}, {"measurement": "Growth inhibition rate (%)", "setting": "[1]; rLZ-8 3.125 μg ml^−1, 48 h", "value": 54, "unit": "%"}, {"measurement": "OD570 nm", "setting": "[1]; rLZ-8 3.125 μg ml^−1, 48 h", "value": "0.53 ± 0.04"}, {"measurement": "Growth inhibition rate (%)", "setting": "[1]; rLZ-8 6.25 μg ml^−1, 48 h", "value": 61, "unit": "%"}, {"measurement": "OD570 nm", "setting": "[1]; rLZ-8 6.25 μg ml^−1, 48 h", "value": "0.45 ± 0.02"}, {"measurement": "Growth inhibition rate (%)", "setting": "[1]; rLZ-8 12.5 μg ml^−1, 48 h", "value": 74, "unit": "%"}, {"measurement": "OD570 nm", "setting": "[1]; rLZ-8 12.5 μg ml^−1, 48 h", "value": "0.30 ± 0.04"}, {"measurement": "Growth inhibition rate (%)", "setting": "[1]; rLZ-8 25 μg ml^−1, 48 h", "value": 81, "unit": "%"}, {"measurement": "OD570 nm", "setting": "[1]; rLZ-8 25 μg ml^−1, 48 h", "value": "0.22 ± 0.01"}, {"measurement": "Growth inhibition rate (%)", "setting": "[1]; rLZ-8 50 μg ml^−1, 48 h", "value": 91, "unit": "%"}, {"measurement": "OD570 nm", "setting": "[1]; rLZ-8 50 μg ml^−1, 48 h", "value": "0.11 ± 0.01"}, {"measurement": "Growth inhibition rate (%)", "setting": "[1]; rLZ-8 100 μg ml^−1, 48 h", "value": 93, "unit": "%"}, {"measurement": "OD570 nm", "setting": "[1]; rLZ-8 100 μg ml^−1, 48 h", "value": "0.08 ± 0.01"}, {"measurement": "Apoptosis rate", "setting": "NB4; NB4, rLZ-8 0.1 μg·ml^−1, 24 h", "value": 9.23, "unit": "%"}, {"measurement": "Apoptosis rate", "setting": "NB4; NB4, rLZ-8 0.5 μg·ml^−1, 24 h", "value": 27.51, "unit": "%"}, {"measurement": "Apoptosis rate", "setting": "NB4; NB4, rLZ-8 2.5 μg·ml^−1, 24 h", "value": 38.60, "unit": "%"}, {"measurement": "Inhibition rate (%)", "setting": "S180 cells; [2]", "value": 16.8, "unit": "%"}, {"measurement": "Tumor weight", "setting": "S180 cells; [2]", "value": "0.84 ± 0.03", "unit": "g"}, {"measurement": "Inhibition rate (%)", "setting": "S180 cells; [3]", "value": 25.7, "unit": "%"}, {"measurement": "Tumor weight", "setting": "S180 cells; [3]", "value": "0.75 ± 0.02", "unit": "g"}, {"measurement": "Inhibition rate (%)", "setting": "S180 cells; [4]", "value": 45.5, "unit": "%"}, {"measurement": "Tumor weight", "setting": "S180 cells; [4]", "value": "0.55 ± 0.03", "unit": "g"}, {"measurement": "colony forming unit-spleen number", "setting": "spleen; rLZ-8 0.62 μg·kg^−1", "value": "8.9 ± 0.41"}, {"measurement": "growth rate", "setting": "spleen; rLZ-8 0.62 μg·kg^−1", "value": 50, "unit": "%"}, {"measurement": "index (spleen)", "setting": "spleen; rLZ-8 0.62 μg·kg^−1", "value": "0.50 ± 0.10"}, {"measurement": "colony forming unit-spleen number", "setting": "spleen; rLZ-8 1.25 μg·kg^−1", "value": "6.3 ± 0.21"}, {"measurement": "growth rate", "setting": "spleen; rLZ-8 1.25 μg·kg^−1", "value": 30, "unit": "%"}, {"measurement": "index (spleen)", "setting": "spleen; rLZ-8 1.25 μg·kg^−1", "value": "0.24 ± 0.13"}, {"measurement": "colony forming unit-spleen number", "setting": "spleen; rLZ-8 2.50 μg·kg^−1", "value": "14.3 ± 0.03"}, {"measurement": "growth rate", "setting": "spleen; rLZ-8 2.50 μg·kg^−1", "value": 69, "unit": "%"}, {"measurement": "index (spleen)", "setting": "spleen; rLZ-8 2.50 μg·kg^−1", "value": "0.52 ± 0.12"}, {"measurement": "colony forming unit-spleen number", "setting": "spleen; rLZ-8 5 μg·kg^−1", "value": "9.7 ± 0.16"}, {"measurement": "growth rate", "setting": "spleen; rLZ-8 5 μg·kg^−1", "value": 54, "unit": "%"}, {"measurement": "index (spleen)", "setting": "spleen; rLZ-8 5 μg·kg^−1", "value": "0.22 ± 0.09"}]}]}
